Measurements from paper PMC10675646 (Viruses, 2023).
Where no end group is shown, it is not given here. [ ]: non-standard residue; d: D form. SeMet = C[Se]CC[C@H](N)C(=O)O

Biological target: T1, TRAF2 TRAF-C domain (human TRAF2 residues 315-501), tag cleaved, for crystallization (human, UniProt Q12933 315-501)
T1 sequence (looked up): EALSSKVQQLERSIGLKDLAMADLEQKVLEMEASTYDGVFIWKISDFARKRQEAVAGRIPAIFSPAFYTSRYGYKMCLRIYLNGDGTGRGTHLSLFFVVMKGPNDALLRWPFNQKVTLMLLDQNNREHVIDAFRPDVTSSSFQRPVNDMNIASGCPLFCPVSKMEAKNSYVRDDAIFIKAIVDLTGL
Assay: crystal structure
Conditions: both partners purified

B1: Selenomethionine (Se-Met) ORF3a peptide (residues 30-45, isoleucine 37 replaced with selenomethionine) (peptide)
peptide: RATATIP[SeMet]QASLPFGW
  binding result: binds
